In this test the target is Biotinylated Grb2 SH2 domain protein (UniProt P62993). Nature of the test: SPR (Biacore S51), b-Grb2 amine-coupled on CM5 chip, compound in solution.

Data on one substance can be found in patent publication US20050119163A1.

Biotinylated Grb2 SH2 domain protein, sequence (P62993 60-152 limits assumed): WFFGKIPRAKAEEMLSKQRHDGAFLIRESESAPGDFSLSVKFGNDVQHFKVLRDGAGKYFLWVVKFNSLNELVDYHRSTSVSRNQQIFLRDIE

As usually defined, the Kd is the constant that tells how readily two partners part at equilibrium. A high value points to weaker binding. In the case of “Compound 6, tri-sodium salt of compound 5: 2-{(9S,10S,14R,18S)-7,16,19-Triaza-18-(carbamoylmethyl)-14-[(5-methyl indolyl)methyl]-8,17,20-trioxo-10-[4-(phosphonomethyl)phenyl]spiro[5.14]icos-11-en-9-yl}acetic acid (peptide)”, the Kd stood at 1.67 nM.
